Results: paper PMC10786891, “Massively parallel profiling of RNA-targeting CRISPR-Cas13d”

B1: target 3 del1,del5 (mixed)
RNA 1: CACCCGUGCAAAAUUGCAGGGGUCUAAAACGACCUGAAUAUUUCAGAUCAAA
RNA 2: GGGAAUGGAUCCACAUCUACGAAUUCGUUUUUGAUCUGAAAUAUUCGGUUGCAGAUCGGAAGAGCACACGU
B2: target 3 U7G,U22C (mixed)
RNA 1: CACCCGUGCAAAAUUGCAGGGGUCUAAAACGACCUGAAUAUUUCAGAUCAAA
RNA 2: GGGAAUGGAUCCACAUCUACGAAUUCGUUCUUGAUCUGAAAUAUGCAGGUCUGCAGAUCGGAAGAGCACACGU
B3: target 3 insA 3' of 4,insU 3' of 1 (mixed)
RNA 1: CACCCGUGCAAAAUUGCAGGGGUCUAAAACGACCUGAAUAUUUCAGAUCAAA
RNA 2: GGGAAUGGAUCCACAUCUACGAAUUCGUUUUUGAUCUGAAAUAUUCAGAGUCUUGCAGAUCGGAAGAGCACACGU
B4: target 3 U2G,G14U (mixed)
RNA 1: CACCCGUGCAAAAUUGCAGGGGUCUAAAACGACCUGAAUAUUUCAGAUCAAA
RNA 2: GGGAAUGGAUCCACAUCUACGAAUUCGUUUUUGAUCUUAAAUAUUCAGGGCUGCAGAUCGGAAGAGCACACGU
B5: target 1 insG 3' of 22,insU 3' of 7 (mixed)
RNA 1: CACCCGUGCAAAAAUGCAGGGGUCUAAAACUGAGCGGAUAACCUCUCUAUGG
RNA 2: GGGAAUGGAUCCACAUCUACGAAUUCGUACGCAUAGAGAGGUUAUCUCGCUCACCGAGAUCGGAAGAGCACACGU
B6: target 3 G4A,U21A (mixed)
RNA 1: CACCCGUGCAAAAUUGCAGGGGUCUAAAACGACCUGAAUAUUUCAGAUCAAA
RNA 2: GGGAAUGGAUCCACAUCUACGAAUUCGUUUAUGAUCUGAAAUAUUCAAGUCUGCAGAUCGGAAGAGCACACGU
B7: target 3 insC 3' of 7,insG 3' of 6 (mixed)
RNA 1: CACCCGUGCAAAAUUGCAGGGGUCUAAAACGACCUGAAUAUUUCAGAUCAAA
RNA 2: GGGAAUGGAUCCACAUCUACGAAUUCGUUUUUGAUCUGAAAUAUUCCGAGGUCUGCAGAUCGGAAGAGCACACGU
B8: target 3 insA 3' of 4,insA 3' of 1 (mixed)
RNA 1: CACCCGUGCAAAAUUGCAGGGGUCUAAAACGACCUGAAUAUUUCAGAUCAAA
RNA 2: GGGAAUGGAUCCACAUCUACGAAUUCGUUUUUGAUCUGAAAUAUUCAGAGUCAUGCAGAUCGGAAGAGCACACGU
B9: target 3 insA 3' of 4,insG 3' of 1 (mixed)
RNA 1: CACCCGUGCAAAAUUGCAGGGGUCUAAAACGACCUGAAUAUUUCAGAUCAAA
RNA 2: GGGAAUGGAUCCACAUCUACGAAUUCGUUUUUGAUCUGAAAUAUUCAGAGUCGUGCAGAUCGGAAGAGCACACGU
B10: target 3 insA 3' of 8,insG 3' of 7 (mixed)
RNA 1: CACCCGUGCAAAAUUGCAGGGGUCUAAAACGACCUGAAUAUUUCAGAUCAAA
RNA 2: GGGAAUGGAUCCACAUCUACGAAUUCGUUUUUGAUCUGAAAUAUAUGCAGGUCUGCAGAUCGGAAGAGCACACGU
B11: target 3 insA 3' of 22,insA 3' of 14 (mixed)
RNA 1: CACCCGUGCAAAAUUGCAGGGGUCUAAAACGACCUGAAUAUUUCAGAUCAAA
RNA 2: GGGAAUGGAUCCACAUCUACGAAUUCGUUUAUUGAUCUGAAAAUAUUCAGGUCUGCAGAUCGGAAGAGCACACGU
B12: target 3 insG 3' of 8 (mixed)
RNA 1: CACCCGUGCAAAAUUGCAGGGGUCUAAAACGACCUGAAUAUUUCAGAUCAAA
RNA 2: GGGAAUGGAUCCACAUCUACGAAUUCGUUUUUGAUCUGAAAUAUGUCAGGUCUGCAGAUCGGAAGAGCACACGU
B13: target 3 insA 3' of 22,insA 3' of 4 (mixed)
RNA 1: CACCCGUGCAAAAUUGCAGGGGUCUAAAACGACCUGAAUAUUUCAGAUCAAA
RNA 2: GGGAAUGGAUCCACAUCUACGAAUUCGUUUAUUGAUCUGAAAUAUUCAGAGUCUGCAGAUCGGAAGAGCACACGU
B14: target 3 insU 3' of 5,insG 3' of 5 (mixed)
RNA 1: CACCCGUGCAAAAUUGCAGGGGUCUAAAACGACCUGAAUAUUUCAGAUCAAA
RNA 2: GGGAAUGGAUCCACAUCUACGAAUUCGUUUUUGAUCUGAAAUAUUCAUGGGUCUGCAGAUCGGAAGAGCACACGU
B15: target 3 C1A,U2G (mixed)
RNA 1: CACCCGUGCAAAAUUGCAGGGGUCUAAAACGACCUGAAUAUUUCAGAUCAAA
RNA 2: GGGAAUGGAUCCACAUCUACGAAUUCGUUUUUGAUCUGAAAUAUUCAGGGAUGCAGAUCGGAAGAGCACACGU
B16: target 1 insC 3' of 13,insU 3' of 5 (mixed)
RNA 1: CACCCGUGCAAAAAUGCAGGGGUCUAAAACUGAGCGGAUAACCUCUCUAUGG
RNA 2: GGGAAUGGAUCCACAUCUACGAAUUCGUACCAUAGAGAGCGUUAUCCGUCUCACCGAGAUCGGAAGAGCACACGU
B17: target 3 insG 3' of 6 (mixed)
RNA 1: CACCCGUGCAAAAUUGCAGGGGUCUAAAACGACCUGAAUAUUUCAGAUCAAA
RNA 2: GGGAAUGGAUCCACAUCUACGAAUUCGUUUUUGAUCUGAAAUAUUCGAGGUCUGCAGAUCGGAAGAGCACACGU
B18: target 3 U2A,G3U (mixed)
RNA 1: CACCCGUGCAAAAUUGCAGGGGUCUAAAACGACCUGAAUAUUUCAGAUCAAA
RNA 2: GGGAAUGGAUCCACAUCUACGAAUUCGUUUUUGAUCUGAAAUAUUCAGUACUGCAGAUCGGAAGAGCACACGU
B19: target 3 C6U,A12G (mixed)
RNA 1: CACCCGUGCAAAAUUGCAGGGGUCUAAAACGACCUGAAUAUUUCAGAUCAAA
RNA 2: GGGAAUGGAUCCACAUCUACGAAUUCGUUUUUGAUCUGAGAUAUUUAGGUCUGCAGAUCGGAAGAGCACACGU
B20: target 3 insA 3' of 4,insC 3' of 3 (mixed)
RNA 1: CACCCGUGCAAAAUUGCAGGGGUCUAAAACGACCUGAAUAUUUCAGAUCAAA
RNA 2: GGGAAUGGAUCCACAUCUACGAAUUCGUUUUUGAUCUGAAAUAUUCAGAGCUCUGCAGAUCGGAAGAGCACACGU
B21: target 3 G3C,U22C (mixed)
RNA 1: CACCCGUGCAAAAUUGCAGGGGUCUAAAACGACCUGAAUAUUUCAGAUCAAA
RNA 2: GGGAAUGGAUCCACAUCUACGAAUUCGUUCUUGAUCUGAAAUAUUCAGCUCUGCAGAUCGGAAGAGCACACGU
B22: target 3 insU 3' of 5,insU 3' of 3 (mixed)
RNA 1: CACCCGUGCAAAAUUGCAGGGGUCUAAAACGACCUGAAUAUUUCAGAUCAAA
RNA 2: GGGAAUGGAUCCACAUCUACGAAUUCGUUUUUGAUCUGAAAUAUUCAUGGUUCUGCAGAUCGGAAGAGCACACGU
B23: target 3 insG 3' of 7,insC 3' of 5 (mixed)
RNA 1: CACCCGUGCAAAAUUGCAGGGGUCUAAAACGACCUGAAUAUUUCAGAUCAAA
RNA 2: GGGAAUGGAUCCACAUCUACGAAUUCGUUUUUGAUCUGAAAUAUUGCACGGUCUGCAGAUCGGAAGAGCACACGU
B24: target 3 A5U,U7G (mixed)
RNA 1: CACCCGUGCAAAAUUGCAGGGGUCUAAAACGACCUGAAUAUUUCAGAUCAAA
RNA 2: GGGAAUGGAUCCACAUCUACGAAUUCGUUUUUGAUCUGAAAUAUGCUGGUCUGCAGAUCGGAAGAGCACACGU
B25: target 3 insU 3' of 6,insG 3' of 2 (mixed)
RNA 1: CACCCGUGCAAAAUUGCAGGGGUCUAAAACGACCUGAAUAUUUCAGAUCAAA
RNA 2: GGGAAUGGAUCCACAUCUACGAAUUCGUUUUUGAUCUGAAAUAUUCUAGGUGCUGCAGAUCGGAAGAGCACACGU
B26: target 3 insU 3' of 13,insG 3' of 6 (mixed)
RNA 1: CACCCGUGCAAAAUUGCAGGGGUCUAAAACGACCUGAAUAUUUCAGAUCAAA
RNA 2: GGGAAUGGAUCCACAUCUACGAAUUCGUUUUUGAUCUGAUAAUAUUCGAGGUCUGCAGAUCGGAAGAGCACACGU
B27: target 1 C2G,A18U (mixed)
RNA 1: CACCCGUGCAAAAAUGCAGGGGUCUAAAACUGAGCGGAUAACCUCUCUAUGG
RNA 2: GGGAAUGGAUCCACAUCUACGAAUUCGUACCAUUGAGAGGUUAUCCGCUGACCGAGAUCGGAAGAGCACACGU
B28: target 3 U2G,U22A (mixed)
RNA 1: CACCCGUGCAAAAUUGCAGGGGUCUAAAACGACCUGAAUAUUUCAGAUCAAA
RNA 2: GGGAAUGGAUCCACAUCUACGAAUUCGUUAUUGAUCUGAAAUAUUCAGGGCUGCAGAUCGGAAGAGCACACGU

These binders were tested against T1, EsCas13d, nuclease-dead (Eubacterium siraeum, UniProt B0MS50, R295A;H300A;R849A;H854A) (assay: crRNA (strand 1, pre-loaded); Mg2+; 40 mM Tris-HCl pH 7.5, 150 mM NaCl, 6 mM MgCl2, 1 mM DTT, 0.1% Tween-20, 0.2 mg/ml BSA; 25 C; 10 min per concentration, then washed). Settings: tags: His6-TwinStrep-SUMO cleaved; N-terminal SNAP kept (SNAP-Surface 488); label: 3' end held by stalled T7 RNA polymerase.
T1 sequence: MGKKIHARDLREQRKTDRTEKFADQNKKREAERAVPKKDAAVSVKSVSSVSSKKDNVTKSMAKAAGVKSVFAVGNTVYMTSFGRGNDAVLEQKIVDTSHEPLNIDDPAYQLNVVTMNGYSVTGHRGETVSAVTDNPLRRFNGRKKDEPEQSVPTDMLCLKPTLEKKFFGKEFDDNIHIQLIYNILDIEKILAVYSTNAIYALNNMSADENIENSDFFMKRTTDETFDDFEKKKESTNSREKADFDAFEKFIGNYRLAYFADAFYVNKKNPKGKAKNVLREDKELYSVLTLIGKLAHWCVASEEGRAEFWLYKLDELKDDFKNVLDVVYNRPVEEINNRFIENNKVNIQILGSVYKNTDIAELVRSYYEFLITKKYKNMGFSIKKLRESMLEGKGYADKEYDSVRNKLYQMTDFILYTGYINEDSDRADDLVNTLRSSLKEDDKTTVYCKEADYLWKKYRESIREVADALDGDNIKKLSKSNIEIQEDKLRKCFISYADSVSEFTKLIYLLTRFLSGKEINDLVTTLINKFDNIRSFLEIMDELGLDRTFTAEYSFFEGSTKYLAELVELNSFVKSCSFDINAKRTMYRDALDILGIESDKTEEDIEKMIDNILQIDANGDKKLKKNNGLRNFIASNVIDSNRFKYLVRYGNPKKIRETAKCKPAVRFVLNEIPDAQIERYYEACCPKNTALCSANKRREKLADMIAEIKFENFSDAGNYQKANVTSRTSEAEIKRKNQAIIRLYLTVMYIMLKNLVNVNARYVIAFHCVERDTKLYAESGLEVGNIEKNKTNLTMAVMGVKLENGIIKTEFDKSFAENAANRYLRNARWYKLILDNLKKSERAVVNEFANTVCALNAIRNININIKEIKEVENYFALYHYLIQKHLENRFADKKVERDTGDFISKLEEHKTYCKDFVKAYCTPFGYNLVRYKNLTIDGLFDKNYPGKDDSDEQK
Work on B1 yielded a Kd of 14 ± 2.2 nM. B2 was tested, and the Kd was 65 ± 26 nM. B3 was tested, and the Kd was 70 ± 32 nM. Work on B4 yielded a Kd of 73.5 ± 13.5 nM. In the case of B5, the Kd is reported as 26.5 ± 1.1 nM. With B6 the Kd was 35.1 ± 3.15 nM. For B7, the Kd was 63 ± 6 nM. B8 gave a Kd of 50.5 ± 23 nM. Work on B9 yielded a Kd of 42 ± 13.5 nM. For B10, the Kd was 72.5 ± 12 nM. For B11, the Kd was 94 ± 36 nM. B12 was tested, and the Kd was 52.5 ± 11.5 nM. In the case of B13, the Kd is reported as 49 ± 10 nM. B14 was tested, and the Kd was 4.74 ± 0.56 nM. B15 showed a Kd of 73.5 ± 22 nM. With B16 the Kd was 8.1 ± 0.8 nM. B17 gave a Kd of 8.45 ± 0.75 nM. B18 showed a Kd of 68 ± 14.5 nM. B19 gave a Kd of 33 ± 5 nM. B20 gave a Kd of 79.5 ± 24.5 nM. For B21, the Kd was 28 ± 4 nM. Binder B22 has a Kd of 4.35 ± 0.375 nM. B23 was tested, and the Kd was 24.4 ± 2.85 nM. Work on B24 yielded a Kd of 60.5 ± 7.5 nM. In the case of B25, the Kd is reported as 28 ± 5 nM. Binder B26 has a Kd of 88 ± 24.5 nM. In the case of B27, the Kd is reported as 17 ± 1.7 nM. B28 gave a Kd of 25.6 ± 2.5 nM.
